Molecular target: T1, recombinant, soluble his tagged human EGFR (Sino Biologicals) (human, UniProt P00533 25-645)
T1 construct: extracellular domain; also called human epidermal growth factor receptor; not shown: his tag
Assay: BLI (ForteBio Octet Red), IgG on protein A tips, 100 nM soluble EGFR;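 note: antibody binding to EGFR read out as on and off rates plus equilibrium affinity, calculated with the Octet instrument software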

Binder | binding result
CoDAH design C5 VH/C1 Vκ (antibody, V domains shown, Cross pair; Measured as full length IgG) VH: QVQLQQSGPGLVKPSETLSITCTVSGFSLTNYGVHWVRQSPGKGLEWLGVIWSGGNTDYNTPFTSRLTINKDNSKSQVFFKMNSLQSNDTAVYYCARALTYYDYEFAYWGQGTLVTVSA VL: DIVLTQSPDFQSVTPKEKVTITCRASQSIGTNIHWYQQKPDQSPKLLIKYASESISGVPSRFSGSGSGTDFTLTINSVESEDIADYYCQQNNNWPTTFGAGTKLELKR | binds
CoDAH design C5 VH/C3 Vκ (antibody, V domains shown, Cross pair; Measured as full length IgG) VH: QVQLQQSGPGLVKPSETLSITCTVSGFSLTNYGVHWVRQSPGKGLEWLGVIWSGGNTDYNTPFTSRLTINKDNSKSQVFFKMNSLQSNDTAVYYCARALTYYDYEFAYWGQGTLVTVSA VL: DILLTQSPVILSVSPGERVTFSCRASQSIGTNIHWYQQKPDQSPKLLIKYASESISGVPSRFSGSGSGTDFTLTINSVESEDIADYYCQQNNNWPTTFGAGTKLELKR | binds
CoDAH design C5 VH/C2 Vκ (antibody, V domains shown, Cross pair; Measured as full length IgG) VH: QVQLQQSGPGLVKPSETLSITCTVSGFSLTNYGVHWVRQSPGKGLEWLGVIWSGGNTDYNTPFTSRLTINKDNSKSQVFFKMNSLQSNDTAVYYCARALTYYDYEFAYWGQGTLVTVSA VL: DIVLTQSPVFLSVTPGEKVTITCRASQSIGTNIHWYQQKPDQSPKLLIKYASESISGVPSRFSGSGSGTDFTLTINSVESEDIADYYCQQNNNWPTTFGAGTKLELKR | binds
CoDAH design C5 VH/C5 Vκ (antibody, V domains shown, Pareto optimal design; Measured as full length IgG) VH: QVQLQQSGPGLVKPSETLSITCTVSGFSLTNYGVHWVRQSPGKGLEWLGVIWSGGNTDYNTPFTSRLTINKDNSKSQVFFKMNSLQSNDTAVYYCARALTYYDYEFAYWGQGTLVTVSA VL: EIVLTQSPVILSVSPGERVTFSCRASQSIGTNIHWYQQKTDQSPRLLIKYASESISGIPSRFSGSGSGTDFTLTINSVESEDIADYYCQQNNNWPTTFGQGTKLELKR | binds
